Assay results published in US20160297852A1 (FORSCHUNGSZENTRUM JUELICH, published 2016).
Where no end group is shown, it is not given here. [ ]: non-standard residue; d: D form.

B1: RD2 amidated (peptide)
peptide: [dP][dT][dL][dH][dT][dH][dN][dR][dR][dR][dR][dR]-NH2
modifications: N-terminus assumed
SMILES: CC(C)C[C@@H](NC(=O)[C@H](NC(=O)[C@H]1CCCN1)[C@H](C)O)C(=O)N[C@H](Cc1c[nH]cn1)C(=O)N[C@@H](C(=O)N[C@H](Cc1c[nH]cn1)C(=O)N[C@H](CC(N)=O)C(=O)N[C@H](CCCNC(=N)N)C(=O)N[C@H](CCCNC(=N)N)C(=O)N[C@H](CCCNC(=N)N)C(=O)N[C@H](CCCNC(=N)N)C(=O)N[C@H](CCCNC(=N)N)C(N)=O)[C@H](C)O
B2: D3RD2 amidated (peptide)
peptide: [dR][dP][dR][dT][dR][dL][dH][dT][dH][dR][dN][dR][dP][dT][dL][dH][dT][dH][dN][dR][dR][dR][dR][dR]-NH2
modifications: N-terminus assumed
SMILES: CC(C)C[C@@H](NC(=O)[C@@H](CCCNC(=N)N)NC(=O)[C@H](NC(=O)[C@@H](CCCNC(=N)N)NC(=O)[C@H]1CCCN1C(=O)[C@H](N)CCCNC(=N)N)[C@H](C)O)C(=O)N[C@H](Cc1c[nH]cn1)C(=O)N[C@@H](C(=O)N[C@H](Cc1c[nH]cn1)C(=O)N[C@H](CCCNC(=N)N)C(=O)N[C@H](CC(N)=O)C(=O)N[C@H](CCCNC(=N)N)C(=O)N1CCC[C@@H]1C(=O)N[C@@H](C(=O)N[C@H](CC(C)C)C(=O)N[C@H](Cc1c[nH]cn1)C(=O)N[C@@H](C(=O)N[C@H](Cc1c[nH]cn1)C(=O)N[C@H](CC(N)=O)C(=O)N[C@H](CCCNC(=N)N)C(=O)N[C@H](CCCNC(=N)N)C(=O)N[C@H](CCCNC(=N)N)C(=O)N[C@H](CCCNC(=N)N)C(=O)N[C@H](CCCNC(=N)N)C(N)=O)[C@H](C)O)[C@H](C)O)[C@H](C)O
B3: D3D3 amidated (peptide)
peptide: [dR][dP][dR][dT][dR][dL][dH][dT][dH][dR][dN][dR][dR][dP][dR][dT][dR][dL][dH][dT][dH][dR][dN][dR]-NH2
modifications: N-terminus assumed
SMILES: CC(C)C[C@@H](NC(=O)[C@@H](CCCNC(=N)N)NC(=O)[C@H](NC(=O)[C@@H](CCCNC(=N)N)NC(=O)[C@H]1CCCN1C(=O)[C@H](N)CCCNC(=N)N)[C@H](C)O)C(=O)N[C@H](Cc1c[nH]cn1)C(=O)N[C@@H](C(=O)N[C@H](Cc1c[nH]cn1)C(=O)N[C@H](CCCNC(=N)N)C(=O)N[C@H](CC(N)=O)C(=O)N[C@H](CCCNC(=N)N)C(=O)N[C@H](CCCNC(=N)N)C(=O)N1CCC[C@@H]1C(=O)N[C@H](CCCNC(=N)N)C(=O)N[C@@H](C(=O)N[C@H](CCCNC(=N)N)C(=O)N[C@H](CC(C)C)C(=O)N[C@H](Cc1c[nH]cn1)C(=O)N[C@@H](C(=O)N[C@H](Cc1c[nH]cn1)C(=O)N[C@H](CCCNC(=N)N)C(=O)N[C@H](CC(N)=O)C(=O)N[C@H](CCCNC(=N)N)C(N)=O)[C@H](C)O)[C@H](C)O)[C@H](C)O
B4: RD2D3 amidated (peptide)
peptide: [dP][dT][dL][dH][dT][dH][dN][dR][dR][dR][dR][dR][dR][dP][dR][dT][dR][dL][dH][dT][dH][dR][dN][dR]-NH2
modifications: N-terminus assumed
SMILES: CC(C)C[C@@H](NC(=O)[C@@H](CCCNC(=N)N)NC(=O)[C@H](NC(=O)[C@@H](CCCNC(=N)N)NC(=O)[C@H]1CCCN1C(=O)[C@@H](CCCNC(=N)N)NC(=O)[C@@H](CCCNC(=N)N)NC(=O)[C@@H](CCCNC(=N)N)NC(=O)[C@@H](CCCNC(=N)N)NC(=O)[C@@H](CCCNC(=N)N)NC(=O)[C@@H](CCCNC(=N)N)NC(=O)[C@@H](CC(N)=O)NC(=O)[C@@H](Cc1c[nH]cn1)NC(=O)[C@H](NC(=O)[C@@H](Cc1c[nH]cn1)NC(=O)[C@@H](CC(C)C)NC(=O)[C@H](NC(=O)[C@H]1CCCN1)[C@H](C)O)[C@H](C)O)[C@H](C)O)C(=O)N[C@H](Cc1c[nH]cn1)C(=O)N[C@@H](C(=O)N[C@H](Cc1c[nH]cn1)C(=O)N[C@H](CCCNC(=N)N)C(=O)N[C@H](CC(N)=O)C(=O)N[C@H](CCCNC(=N)N)C(N)=O)[C@H](C)O
B5: D3 amidated (peptide)
peptide: [dR][dP][dR][dT][dR][dL][dH][dT][dH][dR][dN][dR]-NH2
modifications: N-terminus assumed
SMILES: CC(C)C[C@@H](NC(=O)[C@@H](CCCNC(=N)N)NC(=O)[C@H](NC(=O)[C@@H](CCCNC(=N)N)NC(=O)[C@H]1CCCN1C(=O)[C@H](N)CCCNC(=N)N)[C@H](C)O)C(=O)N[C@H](Cc1c[nH]cn1)C(=O)N[C@@H](C(=O)N[C@H](Cc1c[nH]cn1)C(=O)N[C@H](CCCNC(=N)N)C(=O)N[C@H](CC(N)=O)C(=O)N[C@H](CCCNC(=N)N)C(N)=O)[C@H](C)O
B6: RD2RD2 amidated (peptide)
peptide: [dP][dT][dL][dH][dT][dH][dN][dR][dR][dR][dR][dR][dP][dT][dL][dH][dT][dH][dN][dR][dR][dR][dR][dR]-NH2
modifications: N-terminus assumed
SMILES: CC(C)C[C@@H](NC(=O)[C@H](NC(=O)[C@H]1CCCN1C(=O)[C@@H](CCCNC(=N)N)NC(=O)[C@@H](CCCNC(=N)N)NC(=O)[C@@H](CCCNC(=N)N)NC(=O)[C@@H](CCCNC(=N)N)NC(=O)[C@@H](CCCNC(=N)N)NC(=O)[C@@H](CC(N)=O)NC(=O)[C@@H](Cc1c[nH]cn1)NC(=O)[C@H](NC(=O)[C@@H](Cc1c[nH]cn1)NC(=O)[C@@H](CC(C)C)NC(=O)[C@H](NC(=O)[C@H]1CCCN1)[C@H](C)O)[C@H](C)O)[C@H](C)O)C(=O)N[C@H](Cc1c[nH]cn1)C(=O)N[C@@H](C(=O)N[C@H](Cc1c[nH]cn1)C(=O)N[C@H](CC(N)=O)C(=O)N[C@H](CCCNC(=N)N)C(=O)N[C@H](CCCNC(=N)N)C(=O)N[C@H](CCCNC(=N)N)C(=O)N[C@H](CCCNC(=N)N)C(=O)N[C@H](CCCNC(=N)N)C(N)=O)[C@H](C)O

Target: A beta oligomers of the QIAD test (A beta aggregated under controlled conditions) (UniProt P05067 672-713, limits assumed)
Sequence (P05067 672-713 limits assumed): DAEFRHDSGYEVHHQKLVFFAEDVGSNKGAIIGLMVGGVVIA
Assay: cell-based or functional assay

Going from B1 to B2, the “QIAD: reduction of oligomers in %” value rises from 78% to 88%.

Compared with B3, B4 is higher in “QIAD: reduction of oligomers in %” value: 98% for the first, 100% for the second.

Compared with B5, B6 is higher in “QIAD: reduction of oligomers in %” value: 56% for the first, 97% for the second.
